Results as given in patent WO2005003174A1 (dated 2005).

Target: T1, fusion protein consisting of soluble CD64 linked to the Fc portion of human IgM (human, UniProt P12314 16-292; P01871 106-453, limits assumed)
T1 construct: domain: soluble CD64;domain: Fc portion; Used as a supernatant and detected with alkaline phosphatase labelled goat anti-human IgM; also called soluble CD64-IgM fusion protein
Assay: bispecific ELISA: PsaA coated, detection with soluble CD64-IgM fusion and anti-human IgM

T1 sequence (P12314 other isoform, or with tags, fused parts or gaps limits assumed): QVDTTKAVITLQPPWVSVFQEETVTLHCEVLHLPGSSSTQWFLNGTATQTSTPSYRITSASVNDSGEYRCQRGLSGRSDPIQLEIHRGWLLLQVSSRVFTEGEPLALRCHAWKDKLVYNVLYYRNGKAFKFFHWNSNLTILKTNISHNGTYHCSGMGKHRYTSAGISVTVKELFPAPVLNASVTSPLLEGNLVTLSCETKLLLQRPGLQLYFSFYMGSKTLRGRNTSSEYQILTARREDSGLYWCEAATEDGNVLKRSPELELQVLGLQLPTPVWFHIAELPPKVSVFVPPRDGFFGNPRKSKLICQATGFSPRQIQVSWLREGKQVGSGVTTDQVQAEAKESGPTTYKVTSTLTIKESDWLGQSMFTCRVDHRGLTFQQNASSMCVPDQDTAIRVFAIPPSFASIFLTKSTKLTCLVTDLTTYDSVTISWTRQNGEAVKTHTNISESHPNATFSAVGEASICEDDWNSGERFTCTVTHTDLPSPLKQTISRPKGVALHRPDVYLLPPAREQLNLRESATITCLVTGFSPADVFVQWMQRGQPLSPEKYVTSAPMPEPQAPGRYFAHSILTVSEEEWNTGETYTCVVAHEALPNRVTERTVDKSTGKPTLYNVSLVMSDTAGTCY

B1: F(ab')2 fragment of the anti-PsaA Ab 5-9A7 (antibody, V domains shown)
VH: EVQLVESGGGLVQPGGSLRLSCAASGFTFSSFWMSWVRQAPGKGLEWVANIKQDGSEKFYVDSVKGRFTISRDNAKNSLYLQMNSLRAEDTAVYYCARDRITMVRPYYYFYNGLDVWGQGTTVTVSS
VL: EIVLTQSPATLSLSPGERATLSCRASQSVSSYLAWYQQKPGQAPRLLIYDASNRATGIPARFSGSGSGTDFTLTISSLEPEDFAVYYCQQRSNWPPFTFGPGTKVDIK
notes: F(ab')2 fragment made by pepsin digestion of the human antibody 5-9A7; also called anti-PsaA F(ab')2
**Q.** Does B1 bind?
**A.** no binding
